Data as given in US20030211141A1.

Molecular target: integrin α7β1 on C2C12 murine myoblasts (murine) (UniProt Q61738)
Experiment: cell-based or functional assay

C2C12 skeletal muscle cell attachment to a βIG-H3 substratum after function-perturbing anti-α7 antibody (% reduction of attachment): 80
Substance: human recombinant βIG-H3 (Transforming Growth Factor-β Induced Gene-Human Clone 3 protein), expressed in CHO cells and purified (from UniProt Q15582 1-683) (ligand)
